Source: patent US7727960B2, “C5a receptor antagonists” (Jerini AG, priority 2003, dated 2010)
Starred links: 1 amine or outer side, 2 acyl side, 3 side chain; linkers in the order of their positions; H or OH if unused. Positions of bridges follow the written chain, without caps; N, C: chain ends. Non-standard residues stand in square brackets, D forms with d. No end group written: not given here. 2‑Acetamido‑1‑Methyl‑Glucuronyl = 2-Acetamido-1-methyl-glucuronyl N-terminal group; Ecp = His(tau-4-methoxybenzyl), COc1ccc(Cn2cnc(C[C@H](N[*:1])C(=O)[*:2])c2)cc1; XX1 = 2-Amino-3-(4-piperidinyl)propionic acid; Ebd = Cys(Et), CCSC[C@H](N[*:1])C(=O)[*:2]; Phe(4-Me) = Cc1ccc(C[C@H](N)C(=O)O)cc1; 2Nal = N[C@@H](Cc1ccc2ccccc2c1)C(=O)O; XX2 = 4-guanidyl-piperidinyl-alanine; d(hLeu) = CC(C)CC[C@@H](N)C(=O)O; 2Thi = N[C@@H](Cc1cccs1)C(=O)O; Cha = N[C@@H](CC1CCCCC1)C(=O)O; dCha = N[C@H](CC1CCCCC1)C(=O)O; Chg = N[C@H](C(=O)O)C1CCCCC1; hLeu = CC(C)CC[C@H](N)C(=O)O; dNle = CCCC[C@@H](N)C(=O)O; Eag = 2-Propargylglycine; Nle = CCCC[C@H](N)C(=O)O; Orn = NCCC[C@H](N)C(=O)O; Dab = NCC[C@H](N)C(=O)O

T1: human C5aR (CD88) (human, UniProt P21730 1-350)
T1 sequence (looked up): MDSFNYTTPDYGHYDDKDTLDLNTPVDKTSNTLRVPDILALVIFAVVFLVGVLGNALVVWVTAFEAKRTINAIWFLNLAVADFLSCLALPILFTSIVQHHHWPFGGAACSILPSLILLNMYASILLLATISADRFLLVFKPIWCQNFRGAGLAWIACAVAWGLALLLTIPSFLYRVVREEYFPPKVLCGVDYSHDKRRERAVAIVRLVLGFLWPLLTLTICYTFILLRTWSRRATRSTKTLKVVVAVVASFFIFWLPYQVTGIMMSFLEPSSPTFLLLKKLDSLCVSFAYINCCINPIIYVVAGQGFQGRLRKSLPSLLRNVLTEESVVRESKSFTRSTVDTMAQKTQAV


biological target: T1, human C5aR (CD88); assay: cell-based or functional assay

| Binder | IC50 activity group, enzyme release assay [nM] |
| --- | --- |
| {Ph‑CH2}-[Orn]P[dCha]W[Nle] (lactam 1-C) [Ph-CH2-[Orn-Pro-cha-Trp-Nle]] | ≤ 50 |
| FXPXWR (not fully specified; Ac-; Orn2; cha4 (D); Arg(CH2CH2)6; cyclic [2-6]) [Ac-Phe-[Orn-Pro-cha-Trp-Arg(CH2CH2)]] | ≤ 2000 |
| Ac-F[Orn]P[dCha]W[hLeu] (lactam (positions not given here); not fully specified (bridges); printed as Ac-Phe-[Orn-Pro-cha-Trp-Hle]) [Ac-Phe-[Orn-Pro-cha-Trp-Hle]] | ≤ 50 |
| Ac-F[Orn]P[dCha]W[Eag] (lactam (positions not given here); not fully specified (bridges); printed as Ac-Phe-[Orn-Pro-cha-Trp-Eag]) [Ac-Phe-[Orn-Pro-cha-Trp-Eag]] | ≤ 10 |
| Ac-F[Orn]P[dCha]W[Dab] (lactam (positions not given here); not fully specified (bridges); printed as Ac-Phe-[Orn-Pro-cha-Trp-Dab]) [Ac-Phe-[Orn-Pro-cha-Trp-Dab]] | ≤ 200 |
| Ac-F[Orn]P[dCha]W[dNle] (lactam 2-C (inferred)) [Ac-Phe-[Orn-Pro-cha-Trp-nle]] | ≤ 200 |
| Ac-F[Orn]P[dCha]W[XX1] (lactam (positions not given here); not fully specified (bridges); printed as Ac-Phe-[Orn-Pro-cha-Trp-XX1]) [Ac-Phe-[Orn-Pro-cha-Trp-XX1]] | > 2000 |
| FXPXWX (not fully specified; Ac-; Orn2; cha4 (D); Har6; cyclic [2-6]) [Ac-Phe-[Orn-Pro-cha-Trp-Har]] | ≤ 2000 |
| Ac-F[Orn]P[dCha]WF (lactam (positions not given here); not fully specified (bridges); printed as Ac-Phe-[Orn-Pro-cha-Trp-Phe]) [Ac-Phe-[Orn-Pro-cha-Trp-Phe]] | ≤ 50 |
| Ac-F[Orn]P[dCha]WY (lactam (positions not given here); not fully specified (bridges); printed as Ac-Phe-[Orn-Pro-cha-Trp-Tyr]) [Ac-Phe-[Orn-Pro-cha-Trp-Tyr]] | ≤ 50 |
| Ac-F[Orn]P[dHch]WF-OH [Ac-Phe-Orn-Pro-hch-Trp-Phe-OH] | ≤ 200 |
| FXPXWX (not fully specified; Ac-; Orn2; cha4 (D); Cit6; cyclic [2-6]) [Ac-Phe-[Orn-Pro-cha-Trp-Cit]] | ≤ 2000 |
| Ac-F[Orn]P[dCha]W[XX2] (lactam (positions not given here); not fully specified (bridges); printed as Ac-Phe-[Orn-Pro-cha-Trp-XX2]) [Ac-Phe-[Orn-Pro-cha-Trp-XX2]] | > 2000 |
| Ac-F[Orn]P[dCha]W[2Thi] (lactam (positions not given here); not fully specified (bridges); printed as Ac-Phe-[Orn-Pro-cha-Trp-Thi]) [Ac-Phe-[Orn-Pro-cha-Trp-Thi]] | ≤ 50 |
| Ac-F[Orn]P[dCha]WL (lactam (positions not given here); not fully specified (bridges); printed as Ac-Phe-[Orn-Pro-cha-Trp-Leu]) [Ac-Phe-[Orn-Pro-cha-Trp-Leu]] | ≤ 200 |
| Ac-F[Orn]P[dCha]W[Chg] (lactam (positions not given here); not fully specified (bridges); printed as Ac-Phe-[Orn-Pro-cha-Trp-Chg]) [Ac-Phe-[Orn-Pro-cha-Trp-Chg]] | ≤ 200 |
| Ac-F[Orn]P[dCha]W[2Nal] (lactam (positions not given here); not fully specified (bridges); printed as Ac-Phe-[Orn-Pro-cha-Trp-2Ni]) [Ac-Phe-[Orn-Pro-cha-Trp-2Ni]] | ≤ 200 |
| Ac-F[Orn]P[dCha]W[Phe(4-Me)] (lactam (positions not given here); not fully specified (bridges); printed as Ac-Phe-[Orn-Pro-cha-Trp-Pmf]) [Ac-Phe-[Orn-Pro-cha-Trp-Pmf]] | ≤ 50 |
| {Ph‑CH2}-[Orn]P[dCha]WF (lactam 1-C) [Ph-CH2-[Orn-Pro-cha-Trp-Phe]] | ≤ 50 |
| Ac-F[Orn]P[dCha]WA (lactam (positions not given here); not fully specified (bridges); printed as Ac-Phe-[Orn-Pro-cha-Trp-Ala]) [Ac-Phe-[Orn-Pro-cha-Trp-Ala]] | > 2000 |
| {2‑Acetamido‑1‑Methyl‑Glucuronyl}-F[Orn]P[dCha]W[Nle] (lactam 2-C) [X-Phe-[Orn-Pro-cha-Trp-Nle]; X = 2-Acetamido-1-Methyl-Glucuronyl] | ≤ 50 |
| Ac-F[Orn]P[dCha]WM (lactam (positions not given here); not fully specified (bridges); printed as Ac-Phe-[Orn-Pro-cha-Trp-Met]) [Ac-Phe-[Orn-Pro-cha-Trp-Met]] | ≤ 200 |
| Ac-F[Orn]P[dCha]W[Ebd] (lactam (positions not given here); not fully specified (bridges); printed as Ac-Phe-[Orn-Pro-cha-Trp-Ebd]) [Ac-Phe-[Orn-Pro-cha-Trp-Ebd]] | ≤ 50 |
| {Ph‑CH(OH)‑CH2‑CO}-[Orn]P[dCha]W[Nle] (lactam 1-C) [Ph-CH(OH)-CH2-CO-[Orn-Pro-cha-Trp-Nle]] | ≤ 50 |
| Ac-F[Orn]P[d(hLeu)]W[Nle] (lactam 2-C (inferred)) [Ac-Phe-[Orn-Pro-hle-Trp-Nle]] | ≤ 50 |
| Ac-F[Orn]P[dCha]W[Ecp] (lactam (positions not given here); not fully specified (bridges); printed as Ac-Phe-[Orn-Pro-cha-Trp-Ecp]) [Ac-Phe-[Orn-Pro-cha-Trp-Ecp]] | ≤ 2000 |
| Ac-F[Orn]P[dCha]W[Cha] (lactam (positions not given here); not fully specified (bridges); printed as Ac-Phe-[Orn-Pro-cha-Trp-Cha]) [Ac-Phe-[Orn-Pro-cha-Trp-Cha]] | ≤ 200 |
